Publication PMC5339894, “G196 epitope tag system: a novel monoclonal antibody, G196, recognizes the small, soluble peptide DLVPR with high affinity” (Scientific Reports, 2017)

B1: mAb G196 [mouse] / biotin-SGSGSDLVPRG [modified: biotin on the N-terminus; biotin on the N-terminus] (parent complex)
chain 1: QVKLQESGAELVKPGASVKLSCKASGYTFTNYWMHWVKLRPGQGFEWIGEINPSNGGSNYNEKFKRKATLTVDKSSSTAYMQLSSLTSEDSAVFYCSIWDSYFDYWGQGTTLTVSSAKTTPPSVYPLAPGSAAQTNSMVTLGCLVKGYFPEPVTVTWNSGSLSSGVHTFPAVLQSDLYTLSSSVTVPSSPWPSETVTCNVAHPASSTKVDKKIVPRDC
chain 2: NIVMTQSPKSMSMSVGERVTLTCKASENVVTYVSWYQQKPEQSPKLLIYGASNRYTGVPDRFTGSGSATDFTLTISSVQAEDLADYHCGQGYSYPYTFGGGTKLEIKRADAAPTVSIFPPSSEQLTSGGASVVCFLNNFYPKDINVKWKIDGSERQNGVLNSWTDQDSKDSTYSMSSTLTLTKDEYERHNSYTCEATHKTSTSPIVKSFNRNEC
chain 3: SGSGSDLVPRG

Variants of: B1
Assay: permutation ELISA (densitometry of spots); parent: 1; read off a plot
In the case of chain 3 V8M, the ratio to parent is reported as about 0.09. Work on chain 3 V8N yielded a ratio to parent of about 0.11. chain 3 V8Y gave a ratio to parent of about 0.05. Work on chain 3 V8W yielded a ratio to parent of about 0.03. chain 3 V8Q gave a ratio to parent of about 0.16. chain 3 V8K was tested, and the ratio to parent was about 0.05. chain 3 V8I showed a ratio to parent of about 0.96. chain 3 V8P gave a ratio to parent of about 0.04. chain 3 V8F gave a ratio to parent of about 0.04. With chain 3 V8A the ratio to parent was about 0.82. chain 3 V8R showed a ratio to parent of about 0.07. chain 3 V8E showed a ratio to parent of about 0.07. With chain 3 V8G the ratio to parent was about 0.03. Work on chain 3 V8H yielded a ratio to parent of about 0.08. chain 3 V8S gave a ratio to parent of about 0.44. chain 3 V8C gave a ratio to parent of about 0.08. Variant chain 3 V8T has a ratio to parent of about 0.95. Variant chain 3 V8D has a ratio to parent of about 0.03. chain 3 V8L gave a ratio to parent of about 0.13. Work on chain 3 L7S yielded a ratio to parent of about 0.06. Work on chain 3 L7K yielded a ratio to parent of about 0.1. chain 3 L7H showed a ratio to parent of about 0.62. Work on chain 3 L7R yielded a ratio to parent of about 0.13. For chain 3 L7T, the ratio to parent was about 0.11. Work on chain 3 L7W yielded a ratio to parent of about 0.05. chain 3 L7E was tested, and the ratio to parent was about 0.08. chain 3 L7V was tested, and the ratio to parent was about 0.11. chain 3 L7Q gave a ratio to parent of about 0.07. chain 3 L7M was tested, and the ratio to parent was about 0.84. In the case of chain 3 L7A, the ratio to parent is reported as about 0.08. With chain 3 L7D the ratio to parent was about 0.11. chain 3 L7I was tested, and the ratio to parent was about 0.99. Work on chain 3 L7N yielded a ratio to parent of about 0.6. chain 3 L7F showed a ratio to parent of about 0.72. In the case of chain 3 L7G, the ratio to parent is reported as about 0.04. chain 3 L7C gave a ratio to parent of about 0.06. chain 3 L7Y was tested, and the ratio to parent was about 0.15. In the case of chain 3 L7P, the ratio to parent is reported as about 0.02. In the case of chain 3 R10H, the ratio to parent is reported as about 0.38. chain 3 P9S showed a ratio to parent of about 0.81. chain 3 P9M gave a ratio to parent of about 0.82. chain 3 P9Y gave a ratio to parent of about 0.89. chain 3 P9Q showed a ratio to parent of about 0.72. For chain 3 P9F, the ratio to parent was about 0.86. chain 3 P9N gave a ratio to parent of about 0.76. With chain 3 P9T the ratio to parent was about 0.59. Variant chain 3 P9E has a ratio to parent of about 0.86. Variant chain 3 P9D has a ratio to parent of about 0.78. chain 3 P9I showed a ratio to parent of about 0.85. With chain 3 P9C the ratio to parent was about 0.78. In the case of chain 3 P9V, the ratio to parent is reported as about 0.87. With chain 3 P9L the ratio to parent was about 0.72. With chain 3 P9W the ratio to parent was about 0.82. chain 3 P9H showed a ratio to parent of about 0.74. chain 3 P9R gave a ratio to parent of about 0.74. chain 3 P9K showed a ratio to parent of about 0.4. chain 3 P9G was tested, and the ratio to parent was about 0.67. Work on chain 3 P9A yielded a ratio to parent of about 0.98. Variant chain 3 D6W has a ratio to parent of about 0.12. chain 3 D6Y gave a ratio to parent of about 0.11. Work on chain 3 D6L yielded a ratio to parent of about 0.06. In the case of chain 3 D6N, the ratio to parent is reported as about 0.25. chain 3 D6C was tested, and the ratio to parent was about 0.26. chain 3 D6S gave a ratio to parent of about 0.95. chain 3 D6T gave a ratio to parent of about 0.19. chain 3 D6G was tested, and the ratio to parent was about 0.7. chain 3 D6H gave a ratio to parent of about 0.15. chain 3 D6A gave a ratio to parent of about 0.38. Work on chain 3 D6E yielded a ratio to parent of about 1. In the case of chain 3 D6M, the ratio to parent is reported as about 0.11. For chain 3 D6R, the ratio to parent was about 0.07. chain 3 D6V was tested, and the ratio to parent was about 0.04. For chain 3 D6I, the ratio to parent was about 0.08. For chain 3 D6P, the ratio to parent was about 0.16. Variant chain 3 D6F has a ratio to parent of about 0.09. chain 3 D6K gave a ratio to parent of about 0.05. chain 3 D6Q gave a ratio to parent of about 0.48.
